We go through 33 substances from the Human Domainome abundance scans (Beltran et al. 2025).

± gives the uncertainty stated by the source.

This data set is described as follows: abundance fitness (aPCA) (normalised: wild type 0, dead -1); higher = more abundant; growth selection in yeast, the domain comes from the species named. The following applies: Homo sapiens.
For “Lipoamide acyltransferase component of branched-chain alpha-keto acid dehydrogenase complex, mitochondrial R178H, P11182”, the abundance fitness is -0.1 ± 0.072. The substance “Lipoamide acyltransferase component of branched-chain alpha-keto acid dehydrogenase complex, mitochondrial R178I, P11182” had an abundance fitness of 0.002 ± 0.059.

“Lipoamide acyltransferase component of branched-chain alpha-keto acid dehydrogenase complex, mitochondrial R178K, P11182”: the abundance fitness came out at 0.051 ± 0.058. In the case of “Lipoamide acyltransferase component of branched-chain alpha-keto acid dehydrogenase complex, mitochondrial R178L, P11182”, the abundance fitness was -0.165 ± 0.038. Regarding “Lipoamide acyltransferase component of branched-chain alpha-keto acid dehydrogenase complex, mitochondrial R178M, P11182”, the abundance fitness was -0.035 ± 0.048. Next, “Lipoamide acyltransferase component of branched-chain alpha-keto acid dehydrogenase complex, mitochondrial R178N, P11182”: -0.241 ± 0.071; “Lipoamide acyltransferase component of branched-chain alpha-keto acid dehydrogenase complex, mitochondrial R178P, P11182”: -1.38 ± 0.33; “Lipoamide acyltransferase component of branched-chain alpha-keto acid dehydrogenase complex, mitochondrial R178Q, P11182”: -0.024 ± 0.064. With “Lipoamide acyltransferase component of branched-chain alpha-keto acid dehydrogenase complex, mitochondrial R178S, P11182”, the abundance fitness was -0.081 ± 0.057. Next, “Lipoamide acyltransferase component of branched-chain alpha-keto acid dehydrogenase complex, mitochondrial R178T, P11182”: -0.114 ± 0.067; “Lipoamide acyltransferase component of branched-chain alpha-keto acid dehydrogenase complex, mitochondrial R178W, P11182”: -0.27 ± 0.053. As for “Lipoamide acyltransferase component of branched-chain alpha-keto acid dehydrogenase complex, mitochondrial R179A, P11182”, the figure is -0.048 ± 0.042. For “Lipoamide acyltransferase component of branched-chain alpha-keto acid dehydrogenase complex, mitochondrial R179D, P11182”, the abundance fitness was -0.228 ± 0.11. As for “Lipoamide acyltransferase component of branched-chain alpha-keto acid dehydrogenase complex, mitochondrial R179E, P11182”, the figure is 0.011 ± 0.068; as for “Lipoamide acyltransferase component of branched-chain alpha-keto acid dehydrogenase complex, mitochondrial R179G, P11182”, -0.257 ± 0.038.

Regarding “Lipoamide acyltransferase component of branched-chain alpha-keto acid dehydrogenase complex, mitochondrial R179H, P11182”, the abundance fitness was -0.368 ± 0.14. As for “Lipoamide acyltransferase component of branched-chain alpha-keto acid dehydrogenase complex, mitochondrial R179I, P11182”, the figure is -0.248 ± 0.059. With “Lipoamide acyltransferase component of branched-chain alpha-keto acid dehydrogenase complex, mitochondrial R179K, P11182”, the abundance fitness is -0.021 ± 0.052. As for “Lipoamide acyltransferase component of branched-chain alpha-keto acid dehydrogenase complex, mitochondrial R179L, P11182”, the figure is -0.083 ± 0.042; as for “Lipoamide acyltransferase component of branched-chain alpha-keto acid dehydrogenase complex, mitochondrial R179M, P11182”, -0.087 ± 0.055; as for “Lipoamide acyltransferase component of branched-chain alpha-keto acid dehydrogenase complex, mitochondrial R179N, P11182”, -0.156 ± 0.079. Next, “Lipoamide acyltransferase component of branched-chain alpha-keto acid dehydrogenase complex, mitochondrial R179P, P11182”: -1.11 ± 0.085; “Lipoamide acyltransferase component of branched-chain alpha-keto acid dehydrogenase complex, mitochondrial R179Q, P11182”: 0 ± 0.051; “Lipoamide acyltransferase component of branched-chain alpha-keto acid dehydrogenase complex, mitochondrial R179S, P11182”: -0.212 ± 0.057. As for “Lipoamide acyltransferase component of branched-chain alpha-keto acid dehydrogenase complex, mitochondrial R179T, P11182”, the figure is -0.304 ± 0.091; as for “Lipoamide acyltransferase component of branched-chain alpha-keto acid dehydrogenase complex, mitochondrial R179W, P11182”, -0.28 ± 0.049. Take “Lipoamide acyltransferase component of branched-chain alpha-keto acid dehydrogenase complex, mitochondrial R199A, P11182”: the abundance fitness was found to be 0.016 ± 0.045. For the substance “Lipoamide acyltransferase component of branched-chain alpha-keto acid dehydrogenase complex, mitochondrial R199C, P11182”, the abundance fitness is -0.054 ± 0.065. “Lipoamide acyltransferase component of branched-chain alpha-keto acid dehydrogenase complex, mitochondrial R199E, P11182” showed an abundance fitness of 0.088 ± 0.048.

Regarding “Lipoamide acyltransferase component of branched-chain alpha-keto acid dehydrogenase complex, mitochondrial R199G, P11182”, the abundance fitness was -0.204 ± 0.036. As for “Lipoamide acyltransferase component of branched-chain alpha-keto acid dehydrogenase complex, mitochondrial R199I, P11182”, the figure is -0.142 ± 0.09; as for “Lipoamide acyltransferase component of branched-chain alpha-keto acid dehydrogenase complex, mitochondrial R199K, P11182”, -0.033 ± 0.051. As for “Lipoamide acyltransferase component of branched-chain alpha-keto acid dehydrogenase complex, mitochondrial R199L, P11182”, the figure is -0.173 ± 0.04.
